Laboratory results taken from the supplement of paper PMC10065799, “High-throughput profiling of sequence recognition by tyrosine kinases and SH2 domains using bacterial peptide display” (eLife, 2023).

What was measured:
AncSZ = experiment: phosphorylation enrichment, bacterial display (enrichment ratio); higher = better substrate or ligand; peptides without Tyr show the background
EPHB1 = EPHB1 (UniProt P54762); experiment: as above
EPHB2 = EPHB2 (UniProt P29323); experiment: as above
FGFR1 = FGFR1 (UniProt P11362); experiment: as above
FGFR3 = FGFR3 (UniProt P22607); experiment: as above
Fer (mouse) = experiment: as above
Fes = Fes (UniProt P07332); experiment: as above
Fyn = Fyn (UniProt P06241); experiment: as above
Hck = Hck (UniProt P08631); experiment: as above
Jak2 = Jak2 (UniProt O60674); experiment: as above
MERTK = MERTK (UniProt Q12866); experiment: as above
c-Abl (mouse) = experiment: as above
c-Src = experiment: as above
Grb2 SH2 = Grb2 SH2 (UniProt P62993); experiment: SH2 binding enrichment of the phosphorylated peptide, bacterial display (enrichment ratio); higher = better substrate or ligand; peptides without Tyr show the background
SHP2-C SH2 = experiment: as above
c-Src SH2 = experiment: as above
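For SH2 binding enrichment of the phosphorylated peptide, bacterial display in this document: peptide library displayed on the E. coli surface as eCPX fusions, selected cells deep-sequenced, score is each peptide's frequency after selection divided by its frequency in the input.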
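For phosphorylation enrichment, bacterial display in this document: 11-residue human phosphosite peptides and single-mutation variants displayed on the E. coli surface, counted by deep sequencing, each peptide's frequency after selection divided by its frequency in the unselected input library; frequency after pTyr selection over input frequency; kinase dosed for 20-30% of maximal phosphorylation in three min.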

Sequence of Hck (P08631 whole entry, looked up): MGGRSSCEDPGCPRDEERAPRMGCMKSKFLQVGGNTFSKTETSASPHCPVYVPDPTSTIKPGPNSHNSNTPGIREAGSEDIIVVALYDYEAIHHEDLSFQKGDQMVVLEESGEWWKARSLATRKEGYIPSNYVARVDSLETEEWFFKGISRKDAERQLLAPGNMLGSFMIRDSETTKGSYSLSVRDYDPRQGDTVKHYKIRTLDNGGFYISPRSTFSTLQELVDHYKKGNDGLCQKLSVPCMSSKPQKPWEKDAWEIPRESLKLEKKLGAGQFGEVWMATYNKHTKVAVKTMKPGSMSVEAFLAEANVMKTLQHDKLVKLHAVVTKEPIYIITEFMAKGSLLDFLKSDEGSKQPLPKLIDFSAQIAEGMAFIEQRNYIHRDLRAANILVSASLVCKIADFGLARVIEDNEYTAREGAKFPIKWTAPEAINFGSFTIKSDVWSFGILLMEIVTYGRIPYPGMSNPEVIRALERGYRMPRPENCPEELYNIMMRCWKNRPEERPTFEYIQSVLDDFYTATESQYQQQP
Sequence of FGFR1 (P11362 whole entry, looked up): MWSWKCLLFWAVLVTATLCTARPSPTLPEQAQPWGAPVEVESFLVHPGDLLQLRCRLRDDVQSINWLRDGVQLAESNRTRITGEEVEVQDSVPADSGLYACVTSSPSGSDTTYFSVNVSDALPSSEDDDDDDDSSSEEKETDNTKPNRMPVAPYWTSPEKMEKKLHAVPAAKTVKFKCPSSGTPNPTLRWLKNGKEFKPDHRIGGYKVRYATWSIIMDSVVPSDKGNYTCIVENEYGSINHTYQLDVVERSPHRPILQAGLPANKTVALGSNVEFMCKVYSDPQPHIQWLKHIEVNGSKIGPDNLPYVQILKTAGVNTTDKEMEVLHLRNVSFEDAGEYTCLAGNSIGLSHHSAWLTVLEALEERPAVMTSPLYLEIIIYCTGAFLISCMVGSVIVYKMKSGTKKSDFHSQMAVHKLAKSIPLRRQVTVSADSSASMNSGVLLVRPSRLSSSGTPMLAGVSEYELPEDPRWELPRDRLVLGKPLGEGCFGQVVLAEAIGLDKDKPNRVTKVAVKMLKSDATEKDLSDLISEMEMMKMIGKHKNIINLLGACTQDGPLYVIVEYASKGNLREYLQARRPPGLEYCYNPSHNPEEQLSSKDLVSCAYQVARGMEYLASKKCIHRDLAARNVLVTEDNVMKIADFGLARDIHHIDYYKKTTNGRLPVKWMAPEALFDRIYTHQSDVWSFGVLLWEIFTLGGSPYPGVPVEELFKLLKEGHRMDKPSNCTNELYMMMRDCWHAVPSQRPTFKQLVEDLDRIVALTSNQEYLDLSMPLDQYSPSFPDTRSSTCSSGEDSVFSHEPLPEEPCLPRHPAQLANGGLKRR
Sequence of Fyn (P06241 whole entry, looked up): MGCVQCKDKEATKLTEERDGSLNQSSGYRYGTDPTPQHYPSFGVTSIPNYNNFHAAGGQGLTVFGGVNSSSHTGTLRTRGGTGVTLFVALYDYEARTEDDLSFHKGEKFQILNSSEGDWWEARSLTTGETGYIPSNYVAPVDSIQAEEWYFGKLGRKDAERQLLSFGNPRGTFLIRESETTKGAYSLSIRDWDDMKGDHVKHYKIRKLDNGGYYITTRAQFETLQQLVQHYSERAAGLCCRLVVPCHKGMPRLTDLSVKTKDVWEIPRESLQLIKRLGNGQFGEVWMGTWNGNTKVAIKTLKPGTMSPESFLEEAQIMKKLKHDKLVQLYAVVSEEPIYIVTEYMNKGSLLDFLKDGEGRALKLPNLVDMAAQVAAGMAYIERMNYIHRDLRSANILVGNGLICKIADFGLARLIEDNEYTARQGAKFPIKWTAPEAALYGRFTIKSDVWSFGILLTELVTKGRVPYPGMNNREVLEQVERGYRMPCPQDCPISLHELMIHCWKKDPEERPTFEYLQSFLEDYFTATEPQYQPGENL
Sequence of Grb2 SH2 (P62993 whole entry, looked up): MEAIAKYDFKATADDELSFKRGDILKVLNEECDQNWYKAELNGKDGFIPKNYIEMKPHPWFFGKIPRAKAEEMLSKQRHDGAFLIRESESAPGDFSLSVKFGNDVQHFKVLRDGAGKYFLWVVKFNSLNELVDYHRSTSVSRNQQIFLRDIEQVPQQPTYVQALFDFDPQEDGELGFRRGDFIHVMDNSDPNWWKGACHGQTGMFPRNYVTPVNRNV
Sequence of FGFR3 (P22607 whole entry, looked up): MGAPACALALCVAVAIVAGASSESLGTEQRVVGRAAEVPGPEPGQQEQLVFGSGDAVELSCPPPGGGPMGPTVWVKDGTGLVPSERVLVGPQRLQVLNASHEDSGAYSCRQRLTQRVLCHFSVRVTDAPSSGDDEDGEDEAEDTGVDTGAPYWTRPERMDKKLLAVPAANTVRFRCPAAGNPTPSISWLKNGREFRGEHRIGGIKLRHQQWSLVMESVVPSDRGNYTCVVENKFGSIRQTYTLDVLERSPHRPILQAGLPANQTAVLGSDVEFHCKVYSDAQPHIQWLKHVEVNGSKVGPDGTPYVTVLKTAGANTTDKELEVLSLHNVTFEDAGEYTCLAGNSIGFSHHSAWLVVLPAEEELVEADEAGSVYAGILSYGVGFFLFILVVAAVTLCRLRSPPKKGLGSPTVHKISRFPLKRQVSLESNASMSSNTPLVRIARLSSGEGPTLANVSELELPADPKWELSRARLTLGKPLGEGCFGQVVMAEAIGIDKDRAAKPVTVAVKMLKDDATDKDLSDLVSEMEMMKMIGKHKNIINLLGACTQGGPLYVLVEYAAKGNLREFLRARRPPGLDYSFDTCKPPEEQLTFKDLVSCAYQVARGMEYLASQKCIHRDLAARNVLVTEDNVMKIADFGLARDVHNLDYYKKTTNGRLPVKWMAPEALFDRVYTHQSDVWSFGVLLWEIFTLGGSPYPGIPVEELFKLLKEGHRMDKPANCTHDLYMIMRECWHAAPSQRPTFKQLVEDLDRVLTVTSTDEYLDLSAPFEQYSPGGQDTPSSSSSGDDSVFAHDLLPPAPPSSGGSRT
Sequence of Jak2 (O60674 whole entry, looked up): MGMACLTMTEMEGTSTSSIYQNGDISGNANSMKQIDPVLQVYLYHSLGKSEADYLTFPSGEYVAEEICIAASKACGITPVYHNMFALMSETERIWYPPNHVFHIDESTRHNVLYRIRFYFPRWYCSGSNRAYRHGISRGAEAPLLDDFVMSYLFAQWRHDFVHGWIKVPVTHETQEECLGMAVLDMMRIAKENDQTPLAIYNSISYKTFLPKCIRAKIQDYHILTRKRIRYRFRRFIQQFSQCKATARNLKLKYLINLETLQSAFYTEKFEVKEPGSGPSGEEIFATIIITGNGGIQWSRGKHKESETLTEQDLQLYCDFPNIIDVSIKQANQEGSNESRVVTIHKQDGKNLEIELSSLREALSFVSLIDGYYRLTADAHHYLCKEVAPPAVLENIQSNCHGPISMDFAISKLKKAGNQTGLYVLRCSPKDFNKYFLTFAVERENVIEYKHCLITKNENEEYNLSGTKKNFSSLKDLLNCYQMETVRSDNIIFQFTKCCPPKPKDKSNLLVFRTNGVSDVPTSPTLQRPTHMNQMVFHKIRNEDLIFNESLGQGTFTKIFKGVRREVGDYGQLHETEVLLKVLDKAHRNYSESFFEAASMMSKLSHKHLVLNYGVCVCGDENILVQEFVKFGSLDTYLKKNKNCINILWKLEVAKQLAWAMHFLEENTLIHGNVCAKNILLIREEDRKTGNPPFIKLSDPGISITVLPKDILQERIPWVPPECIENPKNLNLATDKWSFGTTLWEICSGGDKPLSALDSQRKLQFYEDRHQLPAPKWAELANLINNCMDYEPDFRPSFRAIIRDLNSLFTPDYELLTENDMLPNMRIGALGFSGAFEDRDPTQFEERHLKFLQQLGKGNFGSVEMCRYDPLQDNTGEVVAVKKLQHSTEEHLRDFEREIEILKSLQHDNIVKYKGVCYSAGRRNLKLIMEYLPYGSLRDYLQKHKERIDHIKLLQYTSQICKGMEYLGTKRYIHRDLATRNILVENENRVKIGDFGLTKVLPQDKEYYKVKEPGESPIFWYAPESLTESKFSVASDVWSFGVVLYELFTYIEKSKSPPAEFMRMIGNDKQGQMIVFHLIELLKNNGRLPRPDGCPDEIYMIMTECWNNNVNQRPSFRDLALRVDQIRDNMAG
Sequence of Fes (P07332 whole entry, looked up): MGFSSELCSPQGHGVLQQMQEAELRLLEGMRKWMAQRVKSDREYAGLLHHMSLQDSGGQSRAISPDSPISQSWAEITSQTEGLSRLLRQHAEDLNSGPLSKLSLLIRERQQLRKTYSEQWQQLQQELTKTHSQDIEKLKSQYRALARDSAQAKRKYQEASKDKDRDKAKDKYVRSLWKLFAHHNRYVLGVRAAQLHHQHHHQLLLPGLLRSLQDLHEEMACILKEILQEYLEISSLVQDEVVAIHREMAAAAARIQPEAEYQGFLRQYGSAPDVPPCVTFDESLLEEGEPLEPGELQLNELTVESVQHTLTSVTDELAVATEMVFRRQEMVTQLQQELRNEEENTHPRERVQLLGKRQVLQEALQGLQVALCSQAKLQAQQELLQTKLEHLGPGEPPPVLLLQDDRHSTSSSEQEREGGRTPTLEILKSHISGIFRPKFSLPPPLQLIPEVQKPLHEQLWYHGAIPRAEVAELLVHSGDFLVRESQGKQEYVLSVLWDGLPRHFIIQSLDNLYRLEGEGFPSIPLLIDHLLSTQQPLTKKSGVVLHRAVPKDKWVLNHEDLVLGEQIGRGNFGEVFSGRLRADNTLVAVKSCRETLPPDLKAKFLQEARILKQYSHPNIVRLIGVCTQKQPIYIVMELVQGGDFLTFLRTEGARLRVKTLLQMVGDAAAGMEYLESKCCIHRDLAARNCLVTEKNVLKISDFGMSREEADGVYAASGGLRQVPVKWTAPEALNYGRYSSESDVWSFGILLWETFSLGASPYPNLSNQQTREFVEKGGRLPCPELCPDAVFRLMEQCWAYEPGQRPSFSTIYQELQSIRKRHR

Sequence | phosphorylation enrichment (AncSZ) | phosphorylation enrichment (EPHB1) | phosphorylation enrichment (EPHB2) | phosphorylation enrichment (FGFR1) | phosphorylation enrichment (FGFR3) | phosphorylation enrichment (Fer (mouse)) | phosphorylation enrichment (Fes) | phosphorylation enrichment (Fyn) | phosphorylation enrichment (Hck) | phosphorylation enrichment (Jak2) | phosphorylation enrichment (MERTK) | phosphorylation enrichment (c-Abl (mouse)) | phosphorylation enrichment (c-Src) | SH2 binding enrichment (Grb2 SH2) | SH2 binding enrichment (SHP2-C SH2) | SH2 binding enrichment (c-Src SH2)
FIIFIYAMKKK [SLCO1B1_Y645_L643F_YF] | 1.42 | 0.709 | 0.541 | 0.461 | 0.578 | 0.72 | 1.23 | 0.848 | 1.45 | 2.04 | 1.09 | 1.52 | 1.65 | 0.884 | 1.4 | 0.758
FKTPTYPFLLP [PLD2_Y578_YF] | 0.641 | 0.74 | 0.422 | 0.652 | 0.704 | 0.362 | 0.693 | 0.413 | 0.43 | 0.815 | 0.588 | 0.833 | 0.552 | 0.971 | 0.745 | 0.657
FLENFYDLEKD [MMP3_Y42_K45E_YF] | 1.33 | 0.531 | 0.546 | 0.504 | 0.679 | 0.433 | 1.34 | 4.33 | 1.39 | 1.21 | 0.516 | 0.764 | 2.23 | 0.978 | 0.907 | 0.677
FQKNIYSEELR [LMNA_Y211] | 1.01 | 0.84 | 0.728 | 0.801 | 1.2 | 0.516 | 1.24 | 0.965 | 1.07 | 1.04 | 5.8 | 1.04 | 1.81 | 1.02 | 1.5 | 0.591
FQLENYCNGGG [INS_Y108_YF] | 1.34 | 0.677 | 0.458 | 0.601 | 0.72 | 0.364 | 1.41 | 0.878 | 0.619 | 2.44 | 0.45 | 1.76 | 0.736 | 1.29 | 0.674 | 1.18
FQVRRYDCDCD [CRYGS_Y21_G18V] | 1.19 | 0.583 | 0.592 | 0.557 | 0.758 | 0.497 | 1.32 | 0.563 | 0.498 | 1.32 | 0.553 | 0.788 | 0.622 | 0.921 | 0.854 | 0.891
FRIDHYLGKEM [G6PD_Y202_YF] | 0.808 | 0.448 | 0.41 | 0.455 | 0.671 | 0.41 | 1.63 | 0.427 | 0.49 | 0.675 | 0.371 | 0.54 | 0.32 | 0.932 | 0.607 | 0.625
FRRITYHNWRH [PDE6B_Y556_YF] | 0.785 | 0.309 | 0.515 | 0.432 | 0.458 | 0.571 | 0.635 | 0.593 | 0.527 | 0.627 | 0.518 | 0.577 | 0.535 | 0.475 | 0.456 | 0.399
FSEVRYMKEPF [HIPK4_Y170_V171M_YF] | 0.677 | 0.473 | 0.459 | 0.451 | 0.48 | 0.36 | 0.821 | 0.379 | 0.438 | 0.741 | 0.32 | 0.66 | 0.388 | 0.863 | 0.646 | 0.547
FSKQIYKGMVA [PCDH15_Y931_R929Q] | 0.441 | 0.351 | 0.342 | 0.337 | 0.432 | 0.331 | 0.479 | 0.502 | 0.384 | 0.472 | 0.346 | 0.42 | 0.365 | 0.879 | 0.654 | 0.471
FSKTQYNQVPS [CXADR_Y318_YF] | 0.801 | 0.424 | 0.858 | 0.577 | 0.556 | 0.551 | 0.85 | 0.507 | 0.598 | 1.15 | 0.697 | 0.892 | 0.613 | 0.962 | 1.03 | 0.56
FSMGCYEIFLG [HMGCL_Y198_S201Y_YF] | 2.87 | 2.01 | 2.07 | 0.95 | 1.35 | 3.74 | 1.8 | 5.89 | 3.21 | 1.51 | 4.33 | 1.28 | 6.25 | 0.938 | 0.706 | 0.557
FVSLIYTNFEA [GSTP1_Y109_I105V_YF] | 1.78 | 1.13 | 0.91 | 0.962 | 1.05 | 3.18 | 1.46 | 5.96 | 3.31 | 1.18 | 5.37 | 2.22 | 5.94 | 1.35 | 1.15 | 0.8
FVSSFYHAFSG [ACTN4_Y265_YF] | 0.999 | 1.51 | 0.896 | 1.2 | 1.34 | 0.522 | 1.3 | 2.32 | 2.6 | 1.19 | 8.71 | 2.01 | 4.01 | 1.33 | 1.07 | 0.95
FYRNVYHLASV [RBL1_Y796_K794N] | 0.728 | 0.611 | 0.587 | 0.464 | 0.556 | 0.417 | 0.635 | 1.93 | 0.648 | 0.484 | 0.371 | 0.429 | 1 | 0.745 | 0.699 | 2
GAAMLYYPSVS [GPR143_Y177] | 0.763 | 1.5 | 1.66 | 4.07 | 3.51 | 0.63 | 0.783 | 0.747 | 1.46 | 2.6 | 4.88 | 0.941 | 1.11 | 0.776 | 0.608 | 0.765
GACGGYCSVLG [RAB18_Y202] | 0.533 | 0.358 | 0.352 | 0.435 | 0.401 | 0.441 | 0.77 | 0.473 | 0.392 | 0.522 | 0.525 | 0.461 | 0.509 | 0.875 | 2.48 | 8.18

Sequence | phosphorylation enrichment (AncSZ) | phosphorylation enrichment (EPHB1) | phosphorylation enrichment (EPHB2) | phosphorylation enrichment (FGFR1) | phosphorylation enrichment (FGFR3) | phosphorylation enrichment (Fer (mouse)) | phosphorylation enrichment (Fes) | phosphorylation enrichment (Fyn) | phosphorylation enrichment (Hck) | phosphorylation enrichment (Jak2) | phosphorylation enrichment (MERTK) | phosphorylation enrichment (c-Abl (mouse)) | phosphorylation enrichment (c-Src) | SH2 binding enrichment (Grb2 SH2) | SH2 binding enrichment (SHP2-C SH2) | SH2 binding enrichment (c-Src SH2)
GADAIYDHVNE [UQCR10_Y44_I47V] | 1.09 | 1.34 | 1.82 | 0.456 | 0.62 | 3.42 | 1.08 | 4.52 | 6.29 | 0.773 | 2.02 | 0.8 | 3.77 | 0.79 | 0.648 | 0.523
GCAGKYIAMVM [CYP19A1_Y441] | 1 | 0.548 | 0.474 | 0.44 | 0.702 | 0.513 | 1.07 | 0.461 | 0.439 | 0.889 | 0.569 | 0.712 | 0.414 | 0.875 | 0.56 | 0.603
GCLSKYSGVFS [TUBGCP6_Y1624_V1621L] | 0.778 | 0.52 | 0.543 | 0.425 | 0.565 | 0.514 | 1.01 | 0.51 | 0.542 | 1.19 | 0.46 | 0.673 | 0.509 | 1.04 | 1.07 | 0.723
GDYLSYREFHL [ERBIN_Y1107_S1112L] | 1.8 | 16.4 | 22.7 | 5.4 | 3.96 | 0.79 | 0.809 | 3.1 | 2.45 | 1.53 | 0.478 | 15.7 | 2.46 | 0.84 | 0.689 | 0.491
GEDLSYGDVPP [IRS1_Y151] | 1.22 | 0.624 | 0.534 | 0.588 | 0.84 | 0.709 | 1.28 | 0.639 | 0.556 | 0.995 | 0.463 | 0.765 | 0.482 | 0.806 | 0.732 | 0.529
GGDGSYVSVPS [TNNI3K_Y425] | 0.564 | 0.382 | 0.431 | 0.419 | 0.592 | 0.415 | 0.565 | 0.443 | 0.412 | 0.495 | 0.338 | 0.487 | 0.347 | 0.69 | 0.728 | 1.83
GGKYSYLKVGH [GRM3_Y480] | 0.678 | 0.344 | 0.394 | 0.404 | 0.536 | 0.503 | 0.616 | 0.497 | 0.388 | 0.604 | 0.513 | 0.666 | 0.4 | 1.23 | 1.29 | 1.79
GGRIDYIAGLD [APRT_Y60] | 0.898 | 0.85 | 0.417 | 0.447 | 0.545 | 0.521 | 0.829 | 0.409 | 0.52 | 0.708 | 0.46 | 0.582 | 0.422 | 0.789 | 0.728 | 0.498
GHLYANDWISI [BEST1_Y227_Y227N] | 0.819 | 0.778 | 0.619 | 0.609 | 0.674 | 0.527 | 0.871 | 0.734 | 0.575 | 0.878 | 3.32 | 0.587 | 0.683 | 24.5 | 3.5 | 18.4
GIFKDYFRFNF [PLA2G2D_Y85_S80G_YF] | 1.16 | 0.57 | 0.47 | 4.19 | 2.94 | 0.507 | 1.18 | 0.501 | 0.579 | 3.79 | 0.56 | 0.897 | 0.622 | 1.82 | 1.74 | 1.23
GIKAAYEAELG [LMNA_Y81] | 0.713 | 0.531 | 0.507 | 0.502 | 0.496 | 0.446 | 0.797 | 0.597 | 0.438 | 0.691 | 0.404 | 0.704 | 0.392 | 0.875 | 0.727 | 0.514
GISDEYHVIQH [GCDH_Y398_R402Q] | 1.64 | 0.554 | 0.526 | 6.93 | 3.78 | 0.447 | 0.928 | 0.752 | 0.846 | 0.883 | 0.496 | 0.641 | 0.898 | 0.804 | 0.567 | 0.816
GIVEDYRPPFC [ACVRL1_Y421_Y426C] | 0.994 | 0.511 | 0.532 | 0.598 | 0.599 | 0.437 | 1.01 | 0.492 | 0.406 | 0.883 | 0.451 | 0.782 | 0.517 | 0.887 | 0.713 | 0.569
GKSHIYFWTLD [EML2_Y230_E235D] | 1.17 | 0.622 | 0.523 | 1.07 | 1.1 | 0.508 | 1.21 | 0.514 | 0.521 | 1.11 | 0.778 | 0.847 | 0.572 | 0.703 | 0.712 | 0.387
GKVADYIPQLP [GLS_Y249_A254P] | 0.796 | 0.468 | 0.49 | 0.57 | 0.634 | 0.495 | 0.866 | 0.484 | 0.448 | 0.892 | 0.455 | 0.795 | 0.484 | 0.724 | 0.634 | 0.448
GLAELYEFKKK [CKAP5_Y1854_YF] | 0.534 | 0.307 | 0.348 | 0.487 | 0.48 | 0.43 | 0.705 | 0.554 | 0.559 | 0.619 | 0.381 | 0.451 | 0.665 | 2.2 | 0.864 | 0.533
